Experimental data from patent publication US20090291081A1 (AbbVie / Abbott, published 2009).
Values joined by “and” are separate entries in the source; they are usually repeats but may differ in a detail not shown here. Equal entries are not always repeated.

T1: human IL-1α (human, UniProt P01583 113-271)
T1 sequence (looked up): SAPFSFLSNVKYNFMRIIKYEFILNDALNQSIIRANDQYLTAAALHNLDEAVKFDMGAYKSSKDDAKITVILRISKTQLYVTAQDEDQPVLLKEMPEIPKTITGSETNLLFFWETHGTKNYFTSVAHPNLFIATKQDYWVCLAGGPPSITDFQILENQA


Tests used:
human IL-1β [1] = target: human IL-1β (human, UniProt P01584 117-269); assay: cell-based or functional assay
human IL-1α = target: T1, human IL-1α; assay: cell-based or functional assay
human IL-1β [2] = target: T2, human IL-1β (human, UniProt P01584 117-269); assay: Table 60 heading; dAbs from selection on antigen
T2 construct: also called IL-1beta; hIL-1β

| Binder | IL-1β IC50 (human IL-1β [1]) | IL-1α IC50 (human IL-1α) [nM] | binding result (human IL-1β [2]) |
| --- | --- | --- | --- |
| ABT2-108-538x/ABT1-221 huIgG1/K wt (bispecific antibody, V domains shown) VH: EVQLLESGGGLVQPGGSLRLSCAASGFTFADEGMMWVRQAPGKGLEWVSRITYSGKNTYYADSVKGRFTISRDNSKNTLYLQMNSLRAEDTAVYYCAKYTGRILGHHLFDYWGQGTLVTVSS VL: DIQMTQSPSSLSASVGDRVTITCRASQDIWPYLMWYQQKPGKAPKLLIYYSSMLQSGVPSRFSGSGSGTDFTLTISSLQPEDFATYYCQQFRRWPYTFGQGTKVEIKR | 0.01 nM | 200 |  |
| ABT2-108-538x/ABT1-221 huIgG1/K wt (second row of that name; light chain column ABT1-222) (bispecific antibody, V domains shown) VH: EVQLLESGGGLVQPGGSLRLSCAASGFTFADEGMMWVRQAPGKGLEWVSRITYSGKNTYYADSVKGRFTISRDNSKNTLYLQMNSLRAEDTAVYYCAKYTGRILGHHLFDYWGQGTLVTVSS VL: DIQMTQSPSSLSASVGDRVTITCRASQPITRNLRWYQQKPGKAPKLLIYHSSVLQSGVPSRFSGSGSGTDFTLTISSLQPEDFATYYCQQGYRWPVTFGQGTKVEIKR | 0.01 nM | 200 |  |
| ABT2-65-166/ABT1-95-15 hu IgG1/K wt (bispecific antibody, V domains shown) VH: EVQLLESGGGLVQPGGSLRLSCAASGFTFEDYQMGWVRQAPGKGLEWVSSISAMGGRTYYADSVKGRFTISRDNSKNTLYLQMNSLRAEDTAVYYCAQNLVRLGRSRWMFDYWGQGTLVTVSS VL: DIQMTQSPSSLSASVGDRVTITCRASQPIVRNLRWYQQKPGKAPKLLIYSSSYLEPGVPSRFSGSGSGTDFTLTISSLQPEDFATYHCQQGYRWPVTFGQGTKVEIKR | 0.13 nM | 1.89 |  |
| ABT2-65-201/ABT1-95-15 hu IgG1/K mut (234; 235) (bispecific antibody, V domains shown) VH: EVQLLESGGGLVQPGGSLRLSCVASGFTFEDYQMGWVRQAPGKGLEWVSSISAMGRRTYYADSVKGRFTISRDNSKNTLYLQMNSLRAEDTAVYYCAQNLVRLGRSRWMFDYWGQGTLVTVSS VL: DIQMTQSPSSLSASVGDRVTITCRASQPIVRNLRWYQQKPGKAPKLLIYSSSYLEPGVPSRFSGSGSGTDFTLTISSLQPEDFATYHCQQGYRWPVTFGQGTKVEIKR | 0.03 nM | 0.652 |  |
| ABT2-65-166/ABT1-95-184 hu IgG1mut 234, 235/K (bispecific antibody, V domains shown) VH: EVQLLESGGGLVQPGGSLRLSCAASGFTFEDYQMGWVRQAPGKGLEWVSSISAMGGRTYYADSVKGRFTISRDNSKNTLYLQMNSLRAEDTAVYYCAQNLVRLGRSRWMFDYWGQGTLVTVSS VL: DIQMTQSPSSLSASVGDRVTITCRASRTPVRNLRWYQQKPGKAPKLLIYSRSYLEPGVPSRFSGSGSGTDFTLTISSLQPEDFATYHCLQGYRWPPTFGQGTKVEIKR | 0.15 nM | 0.068 |  |
| ABT2-108-521/ABT1-95-A3 hu IgG1 wt (bispecific antibody, V domains shown) VH: EVQLLESGGGLVQPGGSLRLSCAASGFTFAEYTMMWVRQAPGKGLEWVSRIGQDGKNTYYADSVKGRFTISRDNSKNTLYLQMNSLRAEDTAVYYCAKYTGRILGHHLFDYWGQGTLVTVSS VL: DIQMTQSPSSLSASVGDRVTITCRASKPGVRNMRWYQQKPGKAPKLLIYSVSYLEPGVPSRFSGSGSGTDFTLTISSLQPEDFATYHCLQGYRWPPTFGQGTKVEIKR | 0.098 nM | 0.027 |  |
| ABT2-65-166S (other, VH dAb) VH: EVQLLESGGGLVQPGGSLRLSCAASGFTFSDYQMGWVRQAPGKGLEWVSSISAMGGRTYYADSVKGRFTISRDNSKNTLYLQMNSLRAEDTAVYYCAQNLVRLGRSRWMFDYWGQGTLVTVSS |  |  | binds |
| ABT2-65-166SK (other, VH dAb) VH: EVQLLESGGGLVQPGGSLRLSCAASGFTFSDYQMGWVRQAPGKGLEWVSSISAMGGRTYYADSVKGRFTISRDNSKNTLYLQMNSLRAEDTAVYYCAKNLVRLGRSRWMFDYWGQGTLVTVSS |  |  | binds |
| ABT2-65-201 (other, VH dAb) VH: EVQLLESGGGLVQPGGSLRLSCVASGFTFEDYQMGWVRQAPGKGLEWVSSISAMGRRTYYADSVKGRFTISRDNSKNTLYLQMNSLRAEDTAVYYCAQNLVRLGRSRWMFDYWGQGTLVTVSS |  |  | binds |
| ABT2-65-203 (other, VH dAb) VH: EVQLLESGGGLVQPGGSLRLSCVASGFTFEDYQMGWVRQAPGKGLEWVSSISAMGFRTYYADSVKGRFTISRDNSKNTLYLQMNSLRAEDTAVYYCAQNLVRLGRSRWMFDYWGQGTLVTVSS |  |  | binds |
| ABT2-65-B2 (other, VH dAb) VH: EVQLLESGGGLVQPGGSLRLSCVASGFTFEDYQMGWVRQAPGKGLEWVSSISAMGRRTYYADSVKGRFTISRDDSKNTLYLQMNSLRAEDTAVYYCAQNLVRLGRSRWMFDYWGQGTLVTVSS |  |  | binds |
| ABT2-65-B3 (other, VH dAb) VH: EVQLLESGGGLVQPGGSLRLSCVASGFTFEDYQMGWVRQAPGKGLEWVSSISAMGNRAYYADSVKGRFTISRDDSKNTLYLQMNSLRAEDTAVYYCAQNLVRLGRSRWMFDYWGQGTLVTVSS |  |  | binds |
| ABT2-108-504/ABT1-122 hu IgG1/K wt (bispecific antibody, V domains shown) VH: EVQLLESGGGLVQPGGSLRLSCAASGFTFADEGMMWVRQAPGKGLEWVSRIGQDGKNTYYADSVKGRFTISRDNSKNTLYLQMNSLRAEDTAVYYCAKYTGRVGVHHLFDYWGQGTLVTVSS VL: DIQMTQSPSSLSASVGDRVTITCRASQPIWTELNWYQQKPGKAPKLLIYGSSSLQSGVPRFSGSGSGTDFTLTISSLQPEDFATYYCQQFAYFPATFGQGTKVEIKR | 15 nM | 1500 |  |
| ABT2-108-518/ABT1-122 hu IgG1/K wt (bispecific antibody, V domains shown) VH: EVQLLESGGGLVQPGGSLRLSCAASGFTFAEYTMMWVRQAPGKGLEWVSRIGQDGKNTYYRMDVKGRFTISRDNSKNTLYLQMNSLRAEDTAVYYCAKYTGRVGVHHLFDYWGQGTLVTVSS VL: DIQMTQSPSSLSASVGDRVTITCRASQPIWTELNWYQQKPGKAPKLLIYGSSSLQSGVPRFSGSGSGTDFTLTISSLQPEDFATYYCQQFAYFPATFGQGTKVEIKR | 0.5 nM | 400 |  |
| ABT2-108-534x/ABT1-122 hu IgG1/K wt (bispecific antibody, V domains shown) VH: EVQLLESGGGLVQPGGSLRLSCAASGFTFADEGMMWVRQAPGKGLEWVSRITYSGKNTYYADSVKGRFTISRDNSKNTLYLQMNSLRAEDTAVYYCAKYTGRIFSHHLFDYWGQGTLVTVSS VL: DIQMTQSPSSLSASVGDRVTITCRASQPIWTELNWYQQKPGKAPKLLIYGSSSLQSGVPRFSGSGSGTDFTLTISSLQPEDFATYYCQQFAYFPATFGQGTKVEIKR | 0.025 nM and 0.035 nM | 1000 |  |
| ABT2-108-537x/ABT1-122 hu IgG1/K wt (bispecific antibody, V domains shown) VH: EVQLLESGGGLVQPGGSLRLSCAASGFTFADEGMMWVRQAPGKGLEWVSRIGQDGKNTYYRMDVKGRFTISRDNSKNTLYLQMNSLRAEDTAVYYCAKYTGRILGHHLFDYWGQGTLVTVSS VL: DIQMTQSPSSLSASVGDRVTITCRASQPIWTELNWYQQKPGKAPKLLIYGSSSLQSGVPRFSGSGSGTDFTLTISSLQPEDFATYYCQQFAYFPATFGQGTKVEIKR | 0.007 nM and 0.02 nM | 1000 |  |
| ABT2-108-603/ABT1-122 hu IgG1/K wt (bispecific antibody, V domains shown) VH: EVQLLESGGGLVQPGGSLRLSCAASGFTFAEYTMMWVRQAPGKGLEWVSRITDAGKNTYYADSVKGRFTISRDNSKNTLYLQMNSLRAEDTAVYYCAKYTGRVGVHHLFDYWGQGTLVTVSS VL: DIQMTQSPSSLSASVGDRVTITCRASQPIWTELNWYQQKPGKAPKLLIYGSSSLQSGVPRFSGSGSGTDFTLTISSLQPEDFATYYCQQFAYFPATFGQGTKVEIKR | 10 nM | 1500 |  |
| ABT2-108-612/ABT1-122 hu IgG1/K wt (bispecific antibody, V domains shown) VH: EVQLLESGGGLVQPGGSLRLSCAASGFTFAEYTMMWVRQAPGKGLEWVSRIGQDGKNTYYADSVKGRFTISRDNSKNTLYLQMNSLRAEDTAVYYCAKYTGRIMGHHLFDYWGQGTLVTVSS VL: DIQMTQSPSSLSASVGDRVTITCRASQPIWTELNWYQQKPGKAPKLLIYGSSSLQSGVPRFSGSGSGTDFTLTISSLQPEDFATYYCQQFAYFPATFGQGTKVEIKR | 1 nM and 0.45 nM | 100 |  |
| ABT2-108-617/ABT1-122 hu IgG1/K wt (bispecific antibody, V domains shown) VH: EVQLLESGGGLVQPGGSLRLSCAASGFTFAEYTMMWVRQAPGKGLEWVSRIGQDGKNTYYADSVKGRFTISRDNSKNTLYLQMNSLRAEDTAVYYCAKYTGRIFTHHLFDYWGQGTLVTVSS VL: DIQMTQSPSSLSASVGDRVTITCRASQPIWTELNWYQQKPGKAPKLLIYGSSSLQSGVPRFSGSGSGTDFTLTISSLQPEDFATYYCQQFAYFPATFGQGTKVEIKR | 0.05 nM | 150 |  |
| ABT2-65/ABT1-122 hu IgG1/K wt (bispecific antibody, V domains shown) VH: EVQLLESGGGLVQPGGSLRLSCAASGFTFEDYQMGWVRQAPGKGLEWVSSISAMGNRTYYADSVKGRFTISRDDSKNTLYLQMNSLRAEDTAVYYCAKNLVRTQSKMWMFDYWGQGTLVTVSS VL: DIQMTQSPSSLSASVGDRVTITCRASQPIWTELNWYQQKPGKAPKLLIYGSSSLQSGVPRFSGSGSGTDFTLTISSLQPEDFATYYCQQFAYFPATFGQGTKVEIKR | 2000 nM | 2000 |  |
| ABT2-65-8/ABT1-122 hu IgG1/K wt (bispecific antibody, V domains shown) VH: EVQLLESGGGLVQPGGSLRLSCAASGFTFEDYQMGWVRQAPGKGLEWVSSISAMGNRTYYADSVKGRFTISRDDSKNTLYLQMNSLRAEDTAVYYCAQNLVRMDSRRWMFDYWGQGTLVTVSS VL: DIQMTQSPSSLSASVGDRVTITCRASQPIWTELNWYQQKPGKAPKLLIYGSSSLQSGVPRFSGSGSGTDFTLTISSLQPEDFATYYCQQFAYFPATFGQGTKVEIKR | 2.7 nM | 1000 |  |
| ABT2-108-521 (other, VH dAb) VH: EVQLLESGGGLVQPGGSLRLSCAASGFTFAEYTMMWVRQAPGKGLEWVSRIGQDGKNTYYADSVKGRFTISRDNSKNTLYLQMNSLRAEDTAVYYCAKYTGRILGHHLFDYWGQGTLVTVSS |  |  | binds |
| ABT2-108-504 (other, VH dAb) VH: EVQLLESGGGLVQPGGSLRLSCAASGFTFADEGMMWVRQAPGKGLEWVSRIGQDGKNTYYADSVKGRFTISRDNSKNTLYLQMNSLRAEDTAVYYCAKYTGRVGVHHLFDYWGQGTLVTVSS |  |  | binds |
